Experimental findings from patent US20200055937A1 (REMD BIOTHERAPEUTICS, published 2020) are described below.

In experiment [1] the target is T1, human CTLA-4 (human, UniProt P16410 36-161, limits assumed).
T1 construct: also called HuCTLA-4; human cytotoxic T lymphocyte antigen-4
T1 sequence: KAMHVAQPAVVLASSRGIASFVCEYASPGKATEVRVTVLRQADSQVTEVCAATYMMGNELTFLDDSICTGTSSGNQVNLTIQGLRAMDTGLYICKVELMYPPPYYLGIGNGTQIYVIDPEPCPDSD
The experiment is described as follows: ELISA, human CTLA-4 binding. For orientation: ELISA stands for enzyme-linked immunosorbent assay.

For experiment [2], the target named is T1, human CTLA-4. The experiment is described as follows: ratio of the IC50 for blocking CD80 to the IC50 for blocking CD86 on CTLA-4.
Experiment [3] deals with T1, human CTLA-4. The experiment in a line: ligand blocking assay with purified proteins; competitor CD80; CD80 as competing ligand, purified proteins.
For another experiment, the target named is T2, murine CTLA-4 (murine, UniProt P09793 36-161, limits assumed).
T2 construct: ELISA antigen; construct not described; also called mouse CTLA-4
The experiment is described as follows: ELISA, murine CTLA-4 binding assay.

The target in experiment [4] is T1, human CTLA-4. The experiment is described as follows: ligand blocking assay with purified proteins; competitor CD86.
The target in experiment [5] is T3, CTLA4-Fc (UniProt P16410 36-161, limits assumed).
T3 sequence (looked up): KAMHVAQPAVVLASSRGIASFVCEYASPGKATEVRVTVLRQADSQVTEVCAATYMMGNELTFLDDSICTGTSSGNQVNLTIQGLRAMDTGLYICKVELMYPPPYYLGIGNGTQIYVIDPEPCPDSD
The experiment is described as follows: cell-based or functional assay.

The target of the next experiment is T4, cyno Macaque CTLA-4 (cyno Macaque, UniProt G7PL88 36-161).
T4 construct: ELISA antigen; construct not described; also called CynoCTLA-4; cyno CTLA-4
T4 sequence: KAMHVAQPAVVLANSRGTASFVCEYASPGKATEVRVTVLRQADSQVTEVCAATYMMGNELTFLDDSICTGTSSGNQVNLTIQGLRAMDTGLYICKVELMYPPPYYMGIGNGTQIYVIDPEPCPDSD
The experiment in a line: ELISA, cyno CTLA-4 binding.

The target in experiment [6] is T5, CTLA4-his (UniProt P16410 36-161, limits assumed).
T5 construct: construct not described; also called Ag CTLA4-his; Antigen CTLA4-his; not shown: his tag
T5 sequence (looked up): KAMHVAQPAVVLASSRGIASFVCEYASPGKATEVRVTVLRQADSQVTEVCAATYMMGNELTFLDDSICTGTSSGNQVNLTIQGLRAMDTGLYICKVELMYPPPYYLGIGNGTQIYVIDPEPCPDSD
The experiment in a line: SPR Biacore 8k, purified antibody captured on chip, CTLA4-his as analyte. As to the method:
(§1) The affinities of purified antibody binding to CTLA4-his was determined using a Surface Plasmon Resonance (SPR) biosensor, Biacore 8k. Antibodies were immobilized on the sensor chip through capture method. Antigen CTLA4-his was used as the analyte. The data of dissociation (kd) and association (ka) rate constants were obtained using Biacore 8k evaluation software. The equilibrium dissociation constants (KD) were calculated from the ratio of kd over ka.
Background: Surface plasmon resonance follows binding to a sensor surface in real time, without labels.

The target in experiment [7] is T3, CTLA4-Fc. The experiment in a line: SPR Biacore T200, CTLA4-Fc amine-coupled, antibody as analyte; apparent KD. As to the method: (§2) Antigen CTLA4-Fc was immobilized on the sensor chip through amine coupling method. Antibody was used as the analyte. The data of dissociation (kd) and association (kₐ) rate constants were obtained using Biacore T200 evaluation software. The apparent equilibrium dissociation constants (KD) were calculated from the ratio of kd over kₐ.

In experiment [8] the target is T3, CTLA4-Fc. The experiment in a line: SPR Biacore T200, CTLA4-Fc amine-coupled, antibody as analyte. As to the method: as §2
For experiment [9], the target named is T5, CTLA4-his. The experiment is described as follows: SPR Biacore T200, antibody from supernatant captured by anti-human Fc, CTLA4-his injected. The protocol: Affinity ranking of the fifteen humanized antibodies was determined using a Surface Plasmon Resonance (SPR) biosensor, Biacore T200 (GE Healthcare). Anti-human Fc gamma specific antibody was immobilized onto the sensor chip using amine coupling method. […] After equilibration, Ag CTLA4-his was injected for 300 seconds (association phase) followed by the injection of running buffer for 600s (dissociation phase). Responses of reference flow cell (flow cell 1) were subtracted from those of humanized antibodies flow cells during each cycle. The surface was regenerated before the injection of other humanized antibodies. The process was repeated until all antibodies are analyzed. The off-rates of humanized antibodies were obtained from fitting the experimental data locally to 1:1 interaction model using the Biacore 8K evaluation software. The antibodies were ranked by their dissociation rate constants (off-rates, kd).

Experiment [10] addresses T5, CTLA4-his. The experiment in a line: SPR Biacore 8k, purified antibody captured on chip, CTLA4-his as analyte; purified antibody, Biacore 8k. As to the method: as §1

B1: MAb A1 (16A9E9) (antibody, V domains shown)
VH: DVQLQESGPGLVKPSQSLSLTCSVTGDSITSGYYWNWIRQFPGNKLEWMGYISYDGINNYYPSLENRISITRDTSRNQFFLKLNSVTTEDTATYYCAREVVTPGVEVPAWYFDVWGTGTTVTVSS
VL: DIVLTQSPTSLTVSLGQRAIISCKASQSVSFAGTGLMHWYQQKPGQQPKLLIYRASNLEAGVPTRFSGSGSRTDFTLNIHPVEEDDAATYYCQQSREYPWTFGGGTTLEIN
notes: also called murine antibody A1
As usually defined, the EC50 is the concentration at which the effect is half-maximal. Read a low EC50 as higher potency in that assay. One may read the IC50 as the concentration that gives 50% inhibition. Lower therefore signals inhibition by little substance. In the case of B1, the EC50 with human CTLA-4 [1] stood at 0.058 nM; with cyno Macaque CTLA-4, 0.01 nM. The “CD80/CD86 Blocking Ratio” value with human CTLA-4 [2] was determined as 6.49. In addition, the 50% inhibitory concentration (IC50) with human CTLA-4 [3] turned out to be 2.37 nM; with human CTLA-4 [4], 0.365 nM. Besides, in the experiment with murine CTLA-4, the binding result is on record as “no binding”. Moreover, the “IC50 (nM), IL-2 secreted by Jurkat cells co-cultured with CHO/CD80 cells, Experiment 1” value in the experiment with CTLA4-Fc [5] worked out at 19.3 nM. Also, the “IC50 (nM), IL-2 secreted by Jurkat cells co-cultured with CHO/CD80 cells, Experiment 2” value with CTLA4-Fc [5] turned out to be 18.5 nM.

B2: chimeric IgG (antibody, V domains shown)
VH: EVQLRQSGPELVKPGTSVKISCKASGYKFTDHFINWVKQNHGKSLEWIGDINPNNGGTNSNQKFEGKATLTVDKSSSTAYMELRSLTSEDSAVYYCARLRREYFYAMDYWGQGTSVTVSS
VL: DIVMTQAAFSNPVTLGTSASISCRSSKSLLHSNGITYLYWYLQKPGQSPQLLIYQMSNLASGVPDRFSSSGSGTDFTLRISRVEAEDVGVYYCAQNLELPLTFGAGTKLELKR
notes: Variable domains of MAb A4 on human IgG1 and kappa, expressed in HEK293; also called murine-human chimeric antibody derived from murine antibody A4
The kon is the second-order rate constant of association. A higher kon goes with fast association. The koff is the first-order rate constant of dissociation. A low value points to a long-lived complex. In the case of B2, the values for the Kd with CTLA4-his [6], with CTLA4-Fc [7] and in the experiment with CTLA4-his [9] were 0.0131 nM, 0.082 nM and 0.0602 nM, respectively. Besides, the association rate constant (kon) is 765000 M⁻¹ s⁻¹ in the experiment with CTLA4-his [6], 621000 M⁻¹ s⁻¹ with CTLA4-Fc [8] and 430000 M⁻¹ s⁻¹ in the experiment with CTLA4-his [9]. The koff is 5.09e-05 s⁻¹ with CTLA4-Fc [8], 2.59e-05 s⁻¹ with CTLA4-his [9] and at most 1e-05 s⁻¹ in the experiment with CTLA4-his [10].
